Experimental findings from patent US20150344570A1 (published 2015) are described below.

To fix the notation:
T1: human FcγRIIb extracellular domain with C-terminal His tag (human, UniProt P31994 43-217)
T1 construct: extracellular domain; also called FcgRIIb; 2b; not shown: His tag attached to the C terminus
T1 sequence (looked up): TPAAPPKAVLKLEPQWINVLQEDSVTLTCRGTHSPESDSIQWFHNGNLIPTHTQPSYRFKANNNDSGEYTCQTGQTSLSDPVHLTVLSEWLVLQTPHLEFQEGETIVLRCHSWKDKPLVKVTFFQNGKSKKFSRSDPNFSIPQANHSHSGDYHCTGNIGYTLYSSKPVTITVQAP

B1: GpH7-B3 variant L328_14T/GpL16-k0 (Ho Ab) (antibody, human IgG1, kappa)
heavy: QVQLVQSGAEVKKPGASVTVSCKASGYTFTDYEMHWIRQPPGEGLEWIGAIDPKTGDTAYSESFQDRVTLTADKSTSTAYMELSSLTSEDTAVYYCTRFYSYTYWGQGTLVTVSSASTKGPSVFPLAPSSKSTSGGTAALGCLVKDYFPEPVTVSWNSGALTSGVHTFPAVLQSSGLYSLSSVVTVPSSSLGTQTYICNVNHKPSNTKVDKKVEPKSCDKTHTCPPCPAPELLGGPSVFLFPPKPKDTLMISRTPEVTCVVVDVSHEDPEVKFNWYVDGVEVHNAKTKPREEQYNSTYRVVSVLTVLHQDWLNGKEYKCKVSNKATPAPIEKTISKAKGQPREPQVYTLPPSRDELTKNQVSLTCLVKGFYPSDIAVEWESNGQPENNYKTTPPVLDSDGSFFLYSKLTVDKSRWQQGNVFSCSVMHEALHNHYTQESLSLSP
light: DIVMTQSPLSLPVTPGEPASISCQASESLVHSNRNTYLHWYLQKPGQSPQLLIYKVSNRFSGVPDRFSGSGSGTDFTLKISRVEAEDVGVYYCSQNTHVPPTFGQGTKVEIERTVAAPSVFIFPPSDEQLKSGTASVVCLLNNFYPREAKVQWKVDNALQSGNSQESVTEQDSKDSTYSLSSTLTLSKADYEKHKVYACEVTHQGLSSPVTKSFNRGEC
notes: Anti-glypican-3 IgG1; mutation in both H chains; also called L328T homodimerized antibody
B2: GpH7-B3 variant P238_08L/GpL16-k0 (Ho Ab) (antibody, human IgG1, kappa)
heavy: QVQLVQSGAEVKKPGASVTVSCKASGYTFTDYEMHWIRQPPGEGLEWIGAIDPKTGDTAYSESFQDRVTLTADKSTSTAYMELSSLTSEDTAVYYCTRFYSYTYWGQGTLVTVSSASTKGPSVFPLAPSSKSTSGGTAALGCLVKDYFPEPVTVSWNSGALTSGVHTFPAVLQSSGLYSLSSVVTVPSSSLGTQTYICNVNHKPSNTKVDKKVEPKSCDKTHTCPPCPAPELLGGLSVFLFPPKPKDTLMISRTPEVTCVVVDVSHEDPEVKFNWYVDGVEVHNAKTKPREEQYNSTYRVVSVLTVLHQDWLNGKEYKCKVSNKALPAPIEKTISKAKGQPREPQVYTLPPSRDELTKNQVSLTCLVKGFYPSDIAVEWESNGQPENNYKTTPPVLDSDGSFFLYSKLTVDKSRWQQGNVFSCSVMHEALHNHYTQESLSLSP
light: DIVMTQSPLSLPVTPGEPASISCQASESLVHSNRNTYLHWYLQKPGQSPQLLIYKVSNRFSGVPDRFSGSGSGTDFTLKISRVEAEDVGVYYCSQNTHVPPTFGQGTKVEIERTVAAPSVFIFPPSDEQLKSGTASVVCLLNNFYPREAKVQWKVDNALQSGNSQESVTEQDSKDSTYSLSSTLTLSKADYEKHKVYACEVTHQGLSSPVTKSFNRGEC
notes: Anti-glypican-3 IgG1; mutation in both H chains; also called P238L homodimerized antibody
B3: GpH7-B3 variant L328_07I/GpL16-k0 (Ho Ab) (antibody, human IgG1, kappa)
heavy: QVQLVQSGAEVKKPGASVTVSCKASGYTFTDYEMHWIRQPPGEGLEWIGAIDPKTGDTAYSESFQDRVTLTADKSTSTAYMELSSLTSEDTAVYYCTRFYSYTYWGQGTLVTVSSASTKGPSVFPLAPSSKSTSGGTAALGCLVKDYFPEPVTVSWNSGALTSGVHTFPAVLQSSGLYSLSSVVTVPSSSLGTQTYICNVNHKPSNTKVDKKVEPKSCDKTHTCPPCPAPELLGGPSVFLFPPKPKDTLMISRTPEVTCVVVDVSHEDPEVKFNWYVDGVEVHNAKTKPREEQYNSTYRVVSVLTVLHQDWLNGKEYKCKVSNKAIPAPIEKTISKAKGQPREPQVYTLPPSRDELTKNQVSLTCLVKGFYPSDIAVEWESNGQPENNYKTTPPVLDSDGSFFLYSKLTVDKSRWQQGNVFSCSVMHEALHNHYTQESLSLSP
light: DIVMTQSPLSLPVTPGEPASISCQASESLVHSNRNTYLHWYLQKPGQSPQLLIYKVSNRFSGVPDRFSGSGSGTDFTLKISRVEAEDVGVYYCSQNTHVPPTFGQGTKVEIERTVAAPSVFIFPPSDEQLKSGTASVVCLLNNFYPREAKVQWKVDNALQSGNSQESVTEQDSKDSTYSLSSTLTLSKADYEKHKVYACEVTHQGLSSPVTKSFNRGEC
notes: Anti-glypican-3 IgG1; mutation in both H chains; also called L328I homodimerized antibody
B4: GpH7-B3 variant K334_16H/GpL16-k0 (Ho Ab) (antibody, human IgG1, kappa)
heavy: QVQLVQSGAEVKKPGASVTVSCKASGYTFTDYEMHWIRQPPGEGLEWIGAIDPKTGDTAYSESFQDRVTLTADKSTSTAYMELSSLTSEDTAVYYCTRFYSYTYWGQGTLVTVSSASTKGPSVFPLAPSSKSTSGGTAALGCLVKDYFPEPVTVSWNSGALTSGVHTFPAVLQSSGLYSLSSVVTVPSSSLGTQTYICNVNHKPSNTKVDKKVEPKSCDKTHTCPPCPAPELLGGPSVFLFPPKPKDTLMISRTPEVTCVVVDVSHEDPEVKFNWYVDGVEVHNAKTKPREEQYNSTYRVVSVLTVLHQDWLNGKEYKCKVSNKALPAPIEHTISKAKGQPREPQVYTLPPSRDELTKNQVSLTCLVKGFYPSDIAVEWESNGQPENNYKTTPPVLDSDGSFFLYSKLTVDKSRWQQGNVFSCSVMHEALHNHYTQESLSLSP
light: DIVMTQSPLSLPVTPGEPASISCQASESLVHSNRNTYLHWYLQKPGQSPQLLIYKVSNRFSGVPDRFSGSGSGTDFTLKISRVEAEDVGVYYCSQNTHVPPTFGQGTKVEIERTVAAPSVFIFPPSDEQLKSGTASVVCLLNNFYPREAKVQWKVDNALQSGNSQESVTEQDSKDSTYSLSSTLTLSKADYEKHKVYACEVTHQGLSSPVTKSFNRGEC
notes: Anti-glypican-3 IgG1; mutation in both H chains; also called K334H homodimerized antibody
B5: GpH7-B3 variant L328_06M/GpL16-k0 (Ho Ab) (antibody, human IgG1, kappa)
heavy: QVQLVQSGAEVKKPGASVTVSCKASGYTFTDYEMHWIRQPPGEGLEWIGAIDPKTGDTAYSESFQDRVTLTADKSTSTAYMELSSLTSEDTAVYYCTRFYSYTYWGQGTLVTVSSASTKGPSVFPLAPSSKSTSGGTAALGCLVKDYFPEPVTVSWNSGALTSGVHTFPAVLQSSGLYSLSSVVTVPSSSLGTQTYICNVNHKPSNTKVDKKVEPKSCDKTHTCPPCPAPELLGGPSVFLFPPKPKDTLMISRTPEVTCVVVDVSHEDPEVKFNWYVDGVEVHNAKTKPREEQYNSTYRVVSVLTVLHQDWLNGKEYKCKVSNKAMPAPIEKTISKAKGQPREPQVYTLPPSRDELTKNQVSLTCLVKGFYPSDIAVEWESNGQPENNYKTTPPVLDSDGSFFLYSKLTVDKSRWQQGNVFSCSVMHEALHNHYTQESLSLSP
light: DIVMTQSPLSLPVTPGEPASISCQASESLVHSNRNTYLHWYLQKPGQSPQLLIYKVSNRFSGVPDRFSGSGSGTDFTLKISRVEAEDVGVYYCSQNTHVPPTFGQGTKVEIERTVAAPSVFIFPPSDEQLKSGTASVVCLLNNFYPREAKVQWKVDNALQSGNSQESVTEQDSKDSTYSLSSTLTLSKADYEKHKVYACEVTHQGLSSPVTKSFNRGEC
notes: Anti-glypican-3 IgG1; mutation in both H chains; also called L328M homodimerized antibody
B6: GpH7-B3 variant S239_07I/GpL16-k0 (Ho Ab) (antibody, human IgG1, kappa)
heavy: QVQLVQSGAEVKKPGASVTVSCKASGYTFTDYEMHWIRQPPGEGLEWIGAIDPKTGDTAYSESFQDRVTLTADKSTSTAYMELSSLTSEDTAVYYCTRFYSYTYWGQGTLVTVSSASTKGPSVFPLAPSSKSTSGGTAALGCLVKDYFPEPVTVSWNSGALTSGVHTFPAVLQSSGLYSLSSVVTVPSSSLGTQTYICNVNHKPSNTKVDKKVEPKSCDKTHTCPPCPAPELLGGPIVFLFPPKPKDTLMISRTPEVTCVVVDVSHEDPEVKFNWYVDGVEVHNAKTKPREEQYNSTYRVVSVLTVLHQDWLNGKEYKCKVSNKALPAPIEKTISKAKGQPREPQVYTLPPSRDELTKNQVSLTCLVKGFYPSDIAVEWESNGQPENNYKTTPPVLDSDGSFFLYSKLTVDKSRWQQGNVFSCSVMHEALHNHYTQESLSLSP
light: DIVMTQSPLSLPVTPGEPASISCQASESLVHSNRNTYLHWYLQKPGQSPQLLIYKVSNRFSGVPDRFSGSGSGTDFTLKISRVEAEDVGVYYCSQNTHVPPTFGQGTKVEIERTVAAPSVFIFPPSDEQLKSGTASVVCLLNNFYPREAKVQWKVDNALQSGNSQESVTEQDSKDSTYSLSSTLTLSKADYEKHKVYACEVTHQGLSSPVTKSFNRGEC
notes: Anti-glypican-3 IgG1; mutation in both H chains; also called S239I homodimerized antibody
B7: GpH7-B3 variant L328_15Y/GpL16-k0 (Ho Ab) (antibody, human IgG1, kappa)
heavy: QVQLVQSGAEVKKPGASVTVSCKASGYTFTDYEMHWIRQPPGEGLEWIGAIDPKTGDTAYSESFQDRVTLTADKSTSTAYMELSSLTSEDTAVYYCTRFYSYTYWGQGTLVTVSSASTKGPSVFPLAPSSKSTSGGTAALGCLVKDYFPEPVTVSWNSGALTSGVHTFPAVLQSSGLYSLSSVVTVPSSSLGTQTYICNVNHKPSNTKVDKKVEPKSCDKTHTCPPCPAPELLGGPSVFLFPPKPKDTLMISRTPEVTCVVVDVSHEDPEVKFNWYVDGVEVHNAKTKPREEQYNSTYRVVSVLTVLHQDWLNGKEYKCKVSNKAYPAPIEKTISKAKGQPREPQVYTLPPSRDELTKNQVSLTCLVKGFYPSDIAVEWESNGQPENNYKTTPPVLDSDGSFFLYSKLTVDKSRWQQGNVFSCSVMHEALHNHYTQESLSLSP
light: DIVMTQSPLSLPVTPGEPASISCQASESLVHSNRNTYLHWYLQKPGQSPQLLIYKVSNRFSGVPDRFSGSGSGTDFTLKISRVEAEDVGVYYCSQNTHVPPTFGQGTKVEIERTVAAPSVFIFPPSDEQLKSGTASVVCLLNNFYPREAKVQWKVDNALQSGNSQESVTEQDSKDSTYSLSSTLTLSKADYEKHKVYACEVTHQGLSSPVTKSFNRGEC
notes: Anti-glypican-3 IgG1; mutation in both H chains; also called L328Y homodimerized antibody
B8: GpH7-B3 variant P331_04F/GpL16-k0 (Ho Ab) (antibody, human IgG1, kappa)
heavy: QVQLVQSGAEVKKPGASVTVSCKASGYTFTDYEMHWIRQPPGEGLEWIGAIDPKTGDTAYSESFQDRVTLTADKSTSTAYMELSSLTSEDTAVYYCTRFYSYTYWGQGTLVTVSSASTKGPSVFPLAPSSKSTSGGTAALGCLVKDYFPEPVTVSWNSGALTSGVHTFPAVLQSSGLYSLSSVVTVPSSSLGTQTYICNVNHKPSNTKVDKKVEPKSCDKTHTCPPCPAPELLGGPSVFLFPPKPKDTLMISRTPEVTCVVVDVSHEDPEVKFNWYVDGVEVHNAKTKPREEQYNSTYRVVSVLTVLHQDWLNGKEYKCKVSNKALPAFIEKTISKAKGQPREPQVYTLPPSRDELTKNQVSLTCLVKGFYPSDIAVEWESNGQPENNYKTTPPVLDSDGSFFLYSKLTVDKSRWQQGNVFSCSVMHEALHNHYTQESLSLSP
light: DIVMTQSPLSLPVTPGEPASISCQASESLVHSNRNTYLHWYLQKPGQSPQLLIYKVSNRFSGVPDRFSGSGSGTDFTLKISRVEAEDVGVYYCSQNTHVPPTFGQGTKVEIERTVAAPSVFIFPPSDEQLKSGTASVVCLLNNFYPREAKVQWKVDNALQSGNSQESVTEQDSKDSTYSLSSTLTLSKADYEKHKVYACEVTHQGLSSPVTKSFNRGEC
notes: Anti-glypican-3 IgG1; mutation in both H chains; also called P331F homodimerized antibody
B9: GpH7-B3 variant L328_19Q/GpL16-k0 (Ho Ab) (antibody, human IgG1, kappa)
heavy: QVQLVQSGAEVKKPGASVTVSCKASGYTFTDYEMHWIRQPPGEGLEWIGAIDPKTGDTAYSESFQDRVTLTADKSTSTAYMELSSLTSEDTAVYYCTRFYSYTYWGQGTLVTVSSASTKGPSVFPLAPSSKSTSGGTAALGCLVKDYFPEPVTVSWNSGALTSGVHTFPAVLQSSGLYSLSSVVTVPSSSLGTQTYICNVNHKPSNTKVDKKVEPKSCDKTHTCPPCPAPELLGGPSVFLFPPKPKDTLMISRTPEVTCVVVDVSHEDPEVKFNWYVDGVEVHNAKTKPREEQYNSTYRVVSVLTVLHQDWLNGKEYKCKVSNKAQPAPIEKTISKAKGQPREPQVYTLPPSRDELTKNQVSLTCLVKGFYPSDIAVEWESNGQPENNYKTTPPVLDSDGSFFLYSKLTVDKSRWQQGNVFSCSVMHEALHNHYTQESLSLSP
light: DIVMTQSPLSLPVTPGEPASISCQASESLVHSNRNTYLHWYLQKPGQSPQLLIYKVSNRFSGVPDRFSGSGSGTDFTLKISRVEAEDVGVYYCSQNTHVPPTFGQGTKVEIERTVAAPSVFIFPPSDEQLKSGTASVVCLLNNFYPREAKVQWKVDNALQSGNSQESVTEQDSKDSTYSLSSTLTLSKADYEKHKVYACEVTHQGLSSPVTKSFNRGEC
notes: Anti-glypican-3 IgG1; mutation in both H chains; also called L328Q homodimerized antibody

The target of the experiment is T1, human FcγRIIb extracellular domain with …. As to the kind of experiment: SPR (Biacore T100), antibody captured on antigen peptide chip, FcγRIIb as analyte; relative binding. The method, then: Analysis of interaction between objective antibody and the FcγR was carried out using Biacore T100 (GE Healthcare). HBS-EP+ (GE Healthcare) was used as the running buffer, and the measurement temperature was set to 25° C. Chips produced by immobilizing the antigen peptide by the amine coupling method to a Series S Sencor Chip CM5 (GE Healthcare), or alternatively, chips produced by allowing preliminarily biotinylated antigen peptides to interact with and immobilize onto a Series S Sensor Chip SA (certified) (GE Healthcare) were used. Antibodies of interest were captured onto an antigen peptide-immobilized chip, and allowed to interact to each FcγR diluted with running buffer. To regenerate and repeatedly use the chip, the antibodies captured on the chip were washed off by reacting 10 mM glycine-HCl, pH 1.5.
Regarding B1, the Ho/Con_2b is 146 % of control GpH7-B3/GpL16-k0 (=100). As for B2, the Ho/Con_2b is 235 % of control GpH7-B3/GpL16-k0 (=100). For B3, the Ho/Con_2b is 188 % of control GpH7-B3/GpL16-k0 (=100).

As to B4, the Ho/Con_2b is 124 % of control GpH7-B3/GpL16-k0 (=100). In the case of B5, the Ho/Con_2b is 171 % of control GpH7-B3/GpL16-k0 (=100).

For B6, the Ho/Con_2b was 108 % of control GpH7-B3/GpL16-k0 (=100). As to B7, the Ho/Con_2b is 272 % of control GpH7-B3/GpL16-k0 (=100). Regarding B8, the Ho/Con_2b was 113 % of control GpH7-B3/GpL16-k0 (=100).

Turning to B9, the Ho/Con_2b was 111 % of control GpH7-B3/GpL16-k0 (=100).
